Data as given in IntAct's records for PubMed 16002617.

B1: Cyclic dof factor 1 (Arabidopsis thaliana (Mouse-ear cress)), Q8W1E3 (parent)
chain: MLETKDPAIKLFGMKIPFPTVLEVADEEEEKNQNKTLTDQSEKDKTLKKPTKILPCPRCNSMETKFCYYNNYNVNQPRHFCKACQRYWTSGGTMRSVPIGAGRRKNKNNSPTSHYHHVTISETNGPVLSFSLGDDQKVSSNRFGNQKLVARIENNDERSNNNTSNGLNCFPGVSWPYTWNPAFYPVYPYWSMPVLSSPVSSSPTSTLGKHSRDEDETVKQKQRNGSVLVPKTLRIDDPNEAAKSSIWTTLGIKNEVMFNGFGSKKEVKLSNKEETETSLVLCANPAALSRSINFHEQM

Variants of: B1
Details: with ado3_arath ADO3, Q9C9W9
Chain of ado3_arath ADO3, Q9C9W9 (Q9C9W9 whole entry): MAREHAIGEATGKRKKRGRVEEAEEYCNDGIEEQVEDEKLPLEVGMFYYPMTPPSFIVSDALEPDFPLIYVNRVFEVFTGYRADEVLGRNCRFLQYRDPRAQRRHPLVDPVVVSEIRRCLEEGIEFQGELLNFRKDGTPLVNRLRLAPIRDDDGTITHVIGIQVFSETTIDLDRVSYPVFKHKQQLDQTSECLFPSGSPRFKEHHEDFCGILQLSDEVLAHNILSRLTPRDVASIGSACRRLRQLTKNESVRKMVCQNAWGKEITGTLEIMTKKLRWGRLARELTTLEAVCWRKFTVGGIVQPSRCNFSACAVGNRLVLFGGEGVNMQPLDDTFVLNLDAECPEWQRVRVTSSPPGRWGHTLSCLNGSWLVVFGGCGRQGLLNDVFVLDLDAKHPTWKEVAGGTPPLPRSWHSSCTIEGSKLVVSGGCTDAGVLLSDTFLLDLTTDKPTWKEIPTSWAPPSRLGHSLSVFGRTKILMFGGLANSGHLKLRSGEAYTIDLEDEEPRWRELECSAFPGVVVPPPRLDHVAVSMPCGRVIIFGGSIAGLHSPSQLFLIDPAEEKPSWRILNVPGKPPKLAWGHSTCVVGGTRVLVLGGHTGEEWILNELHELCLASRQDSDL

Variant	effect of a mutation on the interaction
K253A	decreasing interaction
